The source of these data is PMC9808371, “Extracellular Galectin 4 Drives Immune Evasion and Promotes T-cell Apoptosis in Pancreatic Cancer” (Cancer Immunology Research, 2022).

Assay [1] addresses T1, human recombinant CD3ε/δ heterodimer (human, UniProt P07766 23-126; P04234 22-105, N-linked glycosylations (sites not given)).
T1 construct: CD3 epsilon chain, human; CD3 delta chain, human; it is probably made of the extracellular domains with vendor tags (surmise); The vendor's catalogue entry would give them; also called human CD3ε/δ; CD3δ/ε; source: bought: ACROBiosystems, CDD-H52wa-100 μg
The experiment in a line: SPR; CD3 heterodimers amine-coupled at pH 4 to CM5 chips (mouse CD3ε/δ 3,900 RU, human CD3ε/δ 9,800 RU, human CD3ε/γ 8,900 RU); gal 4 as analyte, 2-fold dilutions 16 to 0.5 μmol/L, 120 s association, 120 s dissociation; 25°C; 10 mmol/L phosphate pH 7.4, 140 mmol/L NaCl, 0.27 mmol/L KCl, 0.05% Tween 20; Biacore T-200. The settings on record: both partners purified. In general terms: In SPR one partner is held on a chip, and binding of the other changes the refractive index at the surface.

In assay [2] the target is T2, human recombinant CD3ε/γ heterodimer (human, UniProt P07766 23-126; P09693 23-116).
T2 chain 1: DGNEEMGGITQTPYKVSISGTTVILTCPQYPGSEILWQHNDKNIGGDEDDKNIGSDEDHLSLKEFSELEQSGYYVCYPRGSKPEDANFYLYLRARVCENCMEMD
T2 chain 2: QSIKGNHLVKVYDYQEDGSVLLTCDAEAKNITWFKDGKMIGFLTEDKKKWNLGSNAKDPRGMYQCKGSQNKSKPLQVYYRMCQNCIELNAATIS
Description: SPR.

In assay [3] the target is T3, human recombinant CD3ε/δ heterodimer (human, UniProt P07766 23-126; P04234 22-105, N-linked glycosylations (sites not given)).
T3 chain 1: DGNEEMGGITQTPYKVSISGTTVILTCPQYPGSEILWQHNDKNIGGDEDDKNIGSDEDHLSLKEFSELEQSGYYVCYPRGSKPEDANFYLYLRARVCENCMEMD
T3 chain 2: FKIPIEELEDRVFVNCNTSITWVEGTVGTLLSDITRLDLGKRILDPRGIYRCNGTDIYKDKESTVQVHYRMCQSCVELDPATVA
The experiment in a line: SPR.

B1: human recombinant galectin 4 (natural protein, UniProt P56470 1-323, looked up)
chain: MAYVPAPGYQPTYNPTLPYYQPIPGGLNVGMSVYIQGVASEHMKRFFVNFVVGQDPGSDVAFHFNPRFDGWDKVVFNTLQGGKWGSEERKRSMPFKKGAAFELVFIVLAEHYKVVVNGNPFYEYGHRLPLQMVTHLQVDGDLQLQSINFIGGQPLRPQGPPMMPPYPGPGHCHQQLNSLPTMEGPPTFNPPVPYFGRLQGGLTARRTIIIKGYVPPTGKSFAINFKVGSSGDIALHINPRMGNGTVVRNSLLNGSWGSEEKKITHNPFGPGQFFDLSIRCGLDRFKVYANGQHLFDFAHRLSAFQRVDTLEIQGDVTLSYVQI
notes: galectin 4 (LGALS4), Homo sapiens, cDNA NM_006149.4 recloned from pcDNA3.1-C-(k)DYK into pET-His1a (NcoI + Acc65I); The Hisx6-TEV tag was removed before use; also called gal 4; hgal 4; source: E. coli Rosetta (DE3), purified (NiNTA, tag removal with TEV protease, second NiNTA run); not shown: His6, N-terminal, cleaved
Take B1: in assay [1], the “fold affinity against CD3γ/ε” value is 10 fold. For the same molecule, the Kd – broadly, the concentration at which binding is half-saturated – is about 10 µM in assay [2] and about 1 µM in assay [3].
